Assay results as given in article PMC5677552 (Traffic (Copenhagen, Denmark), 2017).

Experiments:
[1] = target: biotin-nup42^408–424 peptide (S. cerevisiae) (UniProt P49686); experiment: BLI
[2] = target: T1, GST-nup42-CTD/MBP-gle1-CTD^H337R/dbp5^L327V trimeric complex (Saccharomyces cerevisiae, UniProt P20449+Q12315, P20449:L327V/Q12315:H337R); experiment: GST pull-down, IP6-dependent complex formation; assay type: binding; details: 50 uM IP6, pH 7.5, 4 C; indirect read-out by complex formation
T1 sequence (Q12315 244-538 H337R): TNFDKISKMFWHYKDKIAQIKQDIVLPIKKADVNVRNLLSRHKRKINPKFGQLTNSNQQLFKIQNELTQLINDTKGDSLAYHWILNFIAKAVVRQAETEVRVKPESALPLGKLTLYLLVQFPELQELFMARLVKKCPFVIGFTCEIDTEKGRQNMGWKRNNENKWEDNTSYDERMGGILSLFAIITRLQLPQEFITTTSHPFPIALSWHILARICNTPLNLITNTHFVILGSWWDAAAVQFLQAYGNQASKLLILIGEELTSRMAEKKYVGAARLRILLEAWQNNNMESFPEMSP
T1 sequence (P20449 1-482 L327V): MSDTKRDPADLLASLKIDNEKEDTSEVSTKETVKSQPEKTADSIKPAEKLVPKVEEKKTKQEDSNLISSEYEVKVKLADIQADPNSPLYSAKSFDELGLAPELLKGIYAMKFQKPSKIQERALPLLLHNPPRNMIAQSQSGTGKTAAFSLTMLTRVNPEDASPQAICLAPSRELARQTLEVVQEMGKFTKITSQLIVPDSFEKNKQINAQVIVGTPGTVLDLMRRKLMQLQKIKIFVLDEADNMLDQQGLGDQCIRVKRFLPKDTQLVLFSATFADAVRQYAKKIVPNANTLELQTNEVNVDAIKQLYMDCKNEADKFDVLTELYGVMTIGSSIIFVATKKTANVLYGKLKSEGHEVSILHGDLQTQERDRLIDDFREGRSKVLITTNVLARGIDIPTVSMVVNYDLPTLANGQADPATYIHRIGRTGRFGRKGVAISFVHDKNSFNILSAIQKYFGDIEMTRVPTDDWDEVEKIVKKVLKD
T1 sequence (P49686 365-430 partner): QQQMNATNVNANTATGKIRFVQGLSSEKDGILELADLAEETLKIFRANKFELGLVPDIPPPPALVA

| Kd [1] [nM] | Molecule | GST pull-down, IP6-dependent complex formation (SDS-PAGE) [2] |
| --- | --- | --- |
| 91.5 | MBP-gle1-CTD (from UniProt Q12315 1-538) (domain or fragment) | – |
| 599 | MBP-gle1-CTD^QKEE>AAAA (from UniProt Q12315 1-538) (domain or fragment) | – |
| – | O=P(O)(O)O[C@H]1[C@H](OP(=O)(O)O)[C@@H](OP(=O)(O)O)[C@H](OP(=O)(O)O)[C@@H](OP(=O)(O)O)[C@H]1OP(=O)(O)O [IP6] | complex was observed only in the presence of IP6 |
